# Assay results reported in PMC6797743, “Dual self-assembly of supramolecular peptide nanotubes to provide stabilisation in water” (Nature Communications, 2019).
# [ ]: non-standard residue; d: D form. pDMA = poly(N,N-dimethylacrylamide) hydrophilic homopolymer (2)
# B1: CP-(pDMA)2 (4), cyclic peptide-hydrophilic polymer conjugate (peptide)
# peptide: cyclo([dL]K(pDMA)[dL]W[dL]K(pDMA)[dL]W)
# notes: cyclo(D-Leu-Lys-D-Leu-Trp)2, printed in three-letter code; designed cyclic octapeptide of alternating D and L residues (cyclic peptide 10); the same CP as in m1; also called control conjugate; fully hydrophilic control conjugate
# Target: the molecule itself
# Assay: static light scattering (SLS); conjugates in water, 0.1-3.0 mg mL^-1, filtered (0.45 um PTFE); before and after 1 h of sonication (1 h and 3 days of standing); Nagg = molecular weight of the aggregate / molecular weight of the unimer; length = Nagg x 0.5 nm
protein,measurement,value
B1,stoichiometry N,25
